Measurements reported in publication PMC11487556.

Key:
[1] = biological target: truncated β1 adrenergic receptor (M. gallopavo β114-E130W, without an intact ICL3) (M. gallopavo) (UniProt P07700)
[2] = biological target: β1 adrenergic receptor with an intact ICL3 (M. gallopavo β114E130WIC3) (M. gallopavo) (UniProt P07700)

Substance: mini Gs (engineered GTPase domain of the Gαs protein), construct R414, I208A (domain or fragment)
- GDP release (decay of BODIPY FL GDP fluorescence) after addition of isoprenaline, 20 °C [1]: 60 s
- GDP release (decay of BODIPY FL GDP fluorescence) after addition of isoprenaline, 20 °C [2]: 60 s
